Changes are numbered by the printed parent chain. In names and notes the source's numbering stands. No end group written: not given here. TMR = tetramethyl rhodamine dye
B1: TMR-E2F1^TD, peptide of the E2F1 transactivation domain (peptide)
peptide: {TMR}-GEGIRDLFDCDFGDLTPLD
notes: also called E2F^TD; source: synthetic peptide, bought: GenScript
B2: TMR-E7^LxCxE, LxCxE peptide of the E7 oncoprotein from HPV (peptide)
peptide: DLYCYEQLN
modifications: also: TMR label, position not given here
notes: source: synthetic peptide, bought: GenScript

How the values were obtained:
Assay in all cases: fluorescence polarisation; 37 °C, after the 25 °C reading ramped over 7 min to 37 °C and 2 min incubation; unlabeled Rb^P against 1.5 nM TMR-E2F1^TD or 7.5 nM TMR-E7^LxCxE; 25 mM Tris pH 8.0, 200 mM NaCl, 1 mM DTT, 0.1% Tween-20; apparent Kd
Conditions in all cases: both partners purified
[1] = molecular target: T1, Rb^P E554K (human, UniProt P06400 380-788, E554K)
T1 construct: also called variant 28
T1 sequence (looked up): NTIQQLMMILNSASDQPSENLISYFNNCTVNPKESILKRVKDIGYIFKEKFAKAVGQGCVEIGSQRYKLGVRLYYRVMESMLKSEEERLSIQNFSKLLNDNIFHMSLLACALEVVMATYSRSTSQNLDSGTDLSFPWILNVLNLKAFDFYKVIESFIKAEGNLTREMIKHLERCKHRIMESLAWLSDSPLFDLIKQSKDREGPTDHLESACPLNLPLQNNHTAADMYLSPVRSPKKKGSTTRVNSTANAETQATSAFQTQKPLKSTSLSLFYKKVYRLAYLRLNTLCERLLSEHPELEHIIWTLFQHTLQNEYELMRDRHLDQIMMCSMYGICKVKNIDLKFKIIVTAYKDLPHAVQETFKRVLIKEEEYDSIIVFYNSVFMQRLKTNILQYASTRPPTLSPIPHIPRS

[2] = molecular target: T2, Rb^P H555Y (human, UniProt P06400 380-788, H555Y)
T2 construct: also called variant 29
T2 sequence (looked up): T1 sequence (looked up) with K175E, H176Y

[3] = molecular target: T3, Rb^P R451C (human, UniProt P06400 380-788, R451C)
T3 construct: also called variant 5
T3 sequence (looked up): T1 sequence (looked up) with R72C, K175E

[4] = molecular target: T4, Rb^P R668H (human, UniProt P06400 380-788, R668H)
T4 construct: also called variant 52
T4 sequence (looked up): T1 sequence (looked up) with K175E, R289H

[5] = molecular target: T5, Rb^P E440K (human, UniProt P06400 380-788, E440K)
T5 construct: also called variant 1
T5 sequence (looked up): T1 sequence (looked up) with E61K, K175E

Row | Binder | Kd [1] | Kd [2] | Kd [3] | Kd [4] | Kd [5]
1 | B1 | 3270 nM | 366 nM | 51 nM | 22 nM | 27 nM
2 | B2 | 48 nM | 32 nM | 19 nM | 28 nM | 13 nM

— article PMC11931385, “Structural and functional analysis of cancer-associated missense variants in the retinoblastoma protein pocket domain” (The Journal of Biological Chemistry, 2025)
